Measured values reported in PMC5587741, “CLEC14a-HSP70-1A interaction regulates HSP70-1A-induced angiogenesis” (Scientific Reports, 2017).

Molecular target: T1, recombinant human HSP70-1A (rhHSP70-1A) (human, UniProt P0DMV8 1-641)
T1 construct: commercially available purified recombinant human HSP70-1A (HSPA1A); source: bought: Sino Biological Inc
Assay: BLI; Octet RED96; rhCLEC14a-ECD immobilised on amine-reactive biosensors; rhHSP70-1A 200-25 nM in 2-fold dilutions in 1x kinetics buffer; 1:1 binding model
Conditions: both partners purified

T1 sequence (P0DMV8 whole entry): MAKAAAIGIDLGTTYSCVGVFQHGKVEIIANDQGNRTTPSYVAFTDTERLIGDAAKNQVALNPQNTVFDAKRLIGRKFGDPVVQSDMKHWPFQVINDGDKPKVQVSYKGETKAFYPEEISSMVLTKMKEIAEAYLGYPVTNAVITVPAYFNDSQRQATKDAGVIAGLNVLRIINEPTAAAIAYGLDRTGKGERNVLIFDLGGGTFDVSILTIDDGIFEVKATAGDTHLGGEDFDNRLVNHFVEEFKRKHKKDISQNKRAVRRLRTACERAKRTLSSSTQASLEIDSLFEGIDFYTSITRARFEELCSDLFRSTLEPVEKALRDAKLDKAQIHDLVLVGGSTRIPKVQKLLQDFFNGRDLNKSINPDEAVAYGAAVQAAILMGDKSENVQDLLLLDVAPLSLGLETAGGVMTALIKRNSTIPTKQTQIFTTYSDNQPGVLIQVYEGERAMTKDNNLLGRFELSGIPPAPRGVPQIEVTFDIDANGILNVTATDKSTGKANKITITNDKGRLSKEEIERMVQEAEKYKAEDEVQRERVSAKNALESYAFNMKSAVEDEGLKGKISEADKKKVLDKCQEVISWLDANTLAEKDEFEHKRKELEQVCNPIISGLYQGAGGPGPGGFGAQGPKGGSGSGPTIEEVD

- Kd: ~8 nM
B1: recombinant human CLEC14a extracellular domain (rhCLEC14a-ECD) (domain or fragment, UniProt Q86T13 22-397, looked up)
chain: EHPTADRAGCSASGACYSLHHATMKRQAAEEACILRGGALSTVRAGAELRAVLALLRAGPGPGGGSKDLLFWVALERRRSHCTLENEPLRGFSWLSSDPGGLESDTLQWVEEPQRSCTARRCAVLQATGGVEPAGWKEMRCHLRANGYLCKYQFEVLCPAPRPGAASNLSYRAPFQLHSAALDFSPPGTEVSALCRGQLPISVTCIADEIGARWDKLSGDVLCPCPGRYLRAGKCAELPNCLDDLGGFACECATGFELGKDGRSCVTSGEGQPTLGGTGVPTRRPPATATSPVPQRTWPIRVDEKLGETPLVPEQDNSVTSIPEIPRWGSQSTMSTLQMSLQAESKATITPSGSVISKFNSTTSSATPQAFDSSSA
notes: commercially available purified recombinant human CLEC14a extracellular domain; source: bought: Abcam
